# From US20260022396A1, “GENETIC CIRCUITS” (FONDAZIONE TELETHON ETS, priority 2022, published 2026)
# B1: CasRx: CRISPR-Cas RNase derived from Ruminococcus flavefaciens, SEQ ID NO: 2 (protein)
# chain: IEKKKSFAKGMGVKSTLVSGSKVYMTTFAEGSDARLEKIVEGDSIRSVNEGEAFSAEMADKNAGYKIGNAKFSHPKGYAVVANNPLYTGPVQQDMLGLKETLEKRYFGESADGNDNICIQVIHNILDIEKILAEYITNAAYAVNNISGLDKDIIGFGKFSTVYTYDEFKDPEHHRAAFNNNDKLINAIKAQYDEFDNFLDNPRLGYFGQAFFSKEGRNYIINYGNECYDILALLSGLRHWVVHNNEEESRISRTWLYNLDKNLDNEYISTLNYLYDRITNELTNSFSKNSAANVNYIAETLGINPAEFAEQYFRFSIMKEQKNLGFNITKLREVMLDRKDMSEIRKNHKVFDSIRTKVYTMMDFVIYRYYIEEDAKVAAANKSLPDNEKSLSEKDIFVINLRGSFNDDQKDALYYDEANRIWRKLENIMHNIKEFRGNKTREYKKKDAPRLPRILPAGRDVSAFSKLMYALTMFLDGKEINDLLTTLINKFDNIQSFLKVMPLIGVNAKFVEEYAFFKDSAKIADELRLIKSFARMGEPIADARRAMYIDAIRILGTNLSYDELKALADTFSLDENGNKLKKGKHGMRNFIINNVISNKRFHYLIRYGDPAHLHEIAKNEAVVKFVLGRIADIQKKQGQNGKNQIDRYYETCIGKDKGKSVSEKVDALTKIITGMNYDQFDKKRSVIEDTGRENAEREKFKKIISLYLTVIYHILKNIVNINARYVIGFHCVERDAQLYKEKGYDINLKKLEEKGFSSVTKLCAGIDETAPDKRKDVEKEMAERAKESIDSLESANPKLYANYIKYSDEKKAEEFTRQINREKAKTALNAYLRNTKWNVIIREDLLRIDNKTCTLFRNKAVHLEVARYVHAYINDIAEVNSYFQLYHYIMQRIIMNERYEKSSGKVSEYFDAVNDEKKYNDRLLKLLCVPFGYCIPRFKNLSIEALFDRNEAAKFDKEKKKVSGNS
# B2: CMV/2B: CMV promoter with gRNA_B binding sites downstream of the TATA box, repressed by VPR-dCas9-N8, SEQ ID NO: 48 (nucleic acid)
# DNA: CGTTACATAACTTACGGTAAATGGCCCGCCTGGCTGACCGCCCAACGACCCCCGCCCATTGACGTCAATAATGACGTATGTTCCCATAGTAACGCCAATAGGGACTTTCCATTGACGTCAATGGGTGGAGTATTTACGGTAAACTGCCCACTTGGCAGTACATCAAGTGTATCATATGCCAAGTACGCCCCCTATTGACGTCAATGACGGTAAATGGCCCGCCTGGCATTATGCCCAGTACATGACCTTATGGGACTTTCCTACTTGGCAGTACATCTACGTATTAGTCATCGCTATTACCATGGTGATGCGGTTTTGGCAGTACATCAATGGGCGTGGATAGCGGTTTGACTCACGGGGATTTCCAAGTCTCCACCCCATTGACGTCAATGGGAGTTTGTTTTGGCACCAAAATCAACGGGACTTTCCAAAATGTCGTAACAACTCCGCCCCATTGACGCAAATGGGCGGTAGGCGTGTACGGTGGGAGGTCTATATAAGCAGAGCTGCCGTCTTCCGTTTCCACATCTTCACGGATACCAAGGTGGCACCGGTTTGATTGCACAGCCCGTCTTCCGTTTCCACATCTTCACGG
# B3: pCMV/TO: modified CMV promoter bearing two Tetracycline Operon (TO) sequences, SEQ ID NO: 8 (nucleic acid)
# DNA: CGTTACATAACTTACGGTAAATGGCCCGCCTGGCTGACCGCCCAACGACCCCCGCCCATTGACGTCAATAATGACGTATGTTCCCATAGTAACGCCAATAGGGACTTTCCATTGACGTCAATGGGTGGAGTATTTACGGTAAACTGCCCACTTGGCAGTACATCAAGTGTATCATATGCCAAGTACGCCCCCTATTGACGTCAATGACGGTAAATGGCCCGCCTGGCATTATGCCCAGTACATGACCTTATGGGACTTTCCTACTTGGCAGTACATCTACGTATTAGTCATCGCTATTACCATGGTGATGCGGTTTTGGCAGTACATCAATGGGCGTGGATAGCGGTTTGACTCACGGGGATTTCCAAGTCTCCACCCCATTGACGTCAATGGGAGTTTGTTTTGGCACCAAAATCAACGGGACTTTCCAAAATGTCGTAACAACTCCGCCCCATTGACGCAAATGGGCGGTAGGCGTGTACGGTGGGAGGTCTATATAAGCAGAGCTCTCCCTATCAGTGATAGAGATCTCCCTATCAGTGATAGAGA
# Key:
# Type in all cases: cell-based, human
# [1] = test system: Gaussia Luciferase (gLuc) transcripts in HEK293 cells; experiment: Mutual inhibition CasRx / gLuc transcripts with no, one or four DR (Example 13)
# Method: In order to confirm the mechanism of inhibition mediated by the output species “Z” on the repressor species “Y” in genetic circuits according to preferred embodiments of the invention, HEK293 cells were co-transfected with CasRx endoribonuclease (species Y) and Gaussia Luciferase (gLuc) transcripts, the latter bearing in the 3′UTR either no Direct Repeat (DR), one DR, or four tandem DR motifs (4×DRs). The hypothesis tested was that upon CasRx binding, only one DR motifs would effectively contribute to transcript cleavage and subsequent degradation. Therefore, in transcripts bearing multiple DR motifs, the remaining DR motifs, not contributing to transcript cleavage, would act as decoys, sequestering active CasRx from the unbound pool. As a result, the CasRx repression efficacy on gLuc expression should decrease.
# The luciferase emission of each sample was measured to quantify the expression of the gLuc at increasing amounts of co-transfected plasmid encoding the CasRx. […] (FIG. 25). Increasing the amount of DR copies in the 3′UTR thus enhances the “sponge” effect, inhibiting the cleavage efficacy of CasRx.
# [2] = test system: Gaussia luciferase transcript harboring a Direct Repeat in its 3′UTR, HEK293T cells; experiment: CasRx repression of Gaussia luciferase reporter with or without Direct Repeat (Example 2)
# Method: Luciferase assay. The cells were collected 48 hours after transfection and lysed with 25 μL of 5×Passive Lysis Buffer ([…]) diluted in water. Firefly Luciferase and Renilla Luciferase expression were measured using the Dual Luciferase Assay (Promega) on a Glomax Explorer plate reader (Promega). Firefly Luciferase Arbitrary Units (fLuc [A.U.]) were calculated by normalizing each sample's Firefly Luciferase activity to the constitutive Renilla activity detected in the same sample. Relative fLuc [A.U.] values have been calculated by dividing each sample's Firefly Luciferase Arbitrary Units by the Firefly Luciferase Arbitrary Units of the sample with no Doxycycline induction, in the case of Doxycycline dose-response curves. […] Luciferase activity was measured using Pierce™ Gaussia-Firefly Luciferase Dual Assay Kit (ThermoFisher Scientific) according to the manufacturer's instructions.
# The findings of Example 1 were further confirmed by transfecting HEK293T cells with an increasing molar ratio of a plasmid encoding a Gaussia luciferase reporter gene, with or without Direct Repeats in its 3′UTR and a plasmid encoding the CasRx endoribonuclease. […] At least, three biological replicates were analyzed for each condition. Relative gLuc A.U. is calculated as the ratio between the gLuc A.U. values obtained transfecting the CasRx against the one which wasn't; this last corresponds to 1 gLuc A.U.
# [3] = test system: Firefly Luciferase driven by CMV/2B promoter in HEK293T cells; experiment: CMV/2B promoter repression by VPR-dCas9-N8 and gRNA_B, Luc assay (Example 12); conditions: VPR-dCas9-N8 with gRNA_B vs scramble gRNA_AB
# Method: Luciferase assay. The cells were collected 48 hours after transfection and lysed with 25 μL of 5×Passive Lysis Buffer ([…]) diluted in water. Firefly Luciferase and Renilla Luciferase expression were measured using the Dual Luciferase Assay (Promega) on a Glomax Explorer plate reader (Promega). Firefly Luciferase Arbitrary Units (fLuc [A.U.]) were calculated by normalizing each sample's Firefly Luciferase activity to the constitutive Renilla activity detected in the same sample. Relative fLuc [A.U.] values have been calculated by dividing each sample's Firefly Luciferase Arbitrary Units by the Firefly Luciferase Arbitrary Units of the sample with no Doxycycline induction, in the case of Doxycycline dose-response curves. In the case of Shield1 treatment, Relative fLuc [A.U.] values have been obtained by dividing each sample's Firefly Luciferase Arbitrary Units by the Firefly Luciferase Arbitrary Units of the sample treated with the maximum dose of Shield1 used, 1000 nM. Regarding experiments comprising Gaussia Luciferase and RedFireFly Luciferase, cells expressing those luciferases were harvested 48 h after transfection. Cells were disrupted with 100 μL/well of 1×Cell Lysis buffer and shaken for 15 min. Luciferase activity was measured using Pierce™ Gaussia-Firefly Luciferase Dual Assay Kit (ThermoFisher Scientific) according to the manufacturer's instructions. […]
# [4] = test system: mCherry expression in HEK293T cells; experiment: pCMV/TO repression by rtTA-VPR, mCherry positive cells by flow cytometry (Example 1); conditions: presence of doxycycline (1000 ng/ml), rtTA-VPR co-transfected
# Method: Flow Cytometry. Cells were collected 48 hours after transfection, washed and resuspended with PBS (Euroclone). Flow Cytometry analysis were carried out using an Accuri C6 (BD Biosciences), analyzing 10000 cells for each sample. A 488-nm laser with a 670 nm LP filter were used to excite and detect mCherry fluorescence.
# HEK293T cells were transfected with a plasmid encoding the pCMV/TO promoter driving the expression of the fluorescent protein mCherry, and with a plasmid encoding the rtTA-VPR transcription factor driven by the strong constitutive pCMV promoter. A condition treated in the same way but without rtTA-VPR transfection was used as a negative control to account for any doxycycline treatment bias on mCherry expression. The percentage of mCherry positive cells was quantified through flow cytometry analysis in the absence and presence (1000 ng/ml) of doxycycline. The results of this experiment are shown in FIG. 3, where it can be appreciated that pCMV/TO efficiently represses the expression of the mCherry almost 25 times at the transcriptional level in the presence of doxycycline. pCMV/TO is efficiently repressed by the rtTA-VPR in the presence of doxycycline. Percentual mean values of at least three biological replicates are shown. Error bars indicate standard error.
molecule,measurement,setting,value
B1,decrease of gLuc expression,"[1]; transcript having one DR, increasing amount of co-transfected CasRx",~2 log
same,luciferase values,"[1]; transcript with 4×DRs, presence of CasRx",higher luciferase values in the presence of CasRx compared to a single DR
same,post-transcriptional inhibition of luciferase expression,[2]; 10 times molar excess of CasRx,~200 folds
same,expression of Gaussia luciferase with DR in 3′UTR,"[2]; equimolar amount of plasmid encoding CasRx, relative to no CasRx",5%
B2,percentage of repression of the CMV/2B,[3],around 60%
B3,repression of mCherry expression,[4],~25 times
